For test [1], the target named is T1, recombinant human placental growth factor 2 (PlGF-2) (human, UniProt P49763-3 19-170).
T1 chain: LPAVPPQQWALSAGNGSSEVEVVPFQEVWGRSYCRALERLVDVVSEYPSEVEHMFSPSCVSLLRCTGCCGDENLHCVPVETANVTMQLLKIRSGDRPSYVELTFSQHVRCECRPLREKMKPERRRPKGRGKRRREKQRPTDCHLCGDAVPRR
The test is described as follows: ELISA; competition with biotinylated VEGFR1, 1 ug/mL heparin.

Test [2] addresses T1, recombinant human placental growth …. Briefly: ELISA; competition with biotinylated VEGFR1, no heparin. For orientation: In an ELISA, binding on a coated surface is turned into a signal by an enzyme label.

B1: VEGFR1 domains 1 to 6 fused to a C-terminal Fc, biotinylated (Fc fusion)
chain: SKLKDPELSLKGTQHIMQAGQTLHLQCRGEAAHKWSLPEMVSKESERLSITKSACGRNGKQFCSTLTLNTAQANHTGFYSCKYLAVPTSKKKETESAIYIFISDTGRPFVEMYSEIPEIIHMTEGRELVIPCRVTSPNITVTLKKFPLDTLIPDGKRIIWDSRKGFIISNATYKEIGLLTCEATVNGHLYKTNYLTHRQTNTIIDVQISTPRPVKLLRGHTLVLNCTATTPLNTRVQMTWSYPDEKNKRASVRRRIDQSNSHANIFYSVLTIDKMQNKDKGLYTCRVRSGPSFKSVNTSVHIYDKAFITVKHRKQQVLETVAGKRSYRLSMKVKAFPSPEVVWLKDGLPATEKSARYLTRGYSLIIKDVTEEDAGNYTILLSIKQSNVFKNLTATLIVNVKPQIYEKAVSSFPDPALYPLGSRQILTCTAYGIPQPTIKWFWHPCNHNHSEARCDFCSNNEESFILDADSNMGNRIESITQRMAIIEGKNKMASTLVVADSRISGIYICIASNKVGTVGRNISFYITDVPNGFHVNLEKMPTEGEDLKLSCTVNKFLYRDVTWILLRTVNNRTMHYSISKQKMAITKEHSITLNLTIMNVSLQDSGTYACRARNVYTGEEILQKKEIT
modifications: biotin (EZ-Link Sulfo-NHS-Biotinylation Kit)
The IC50 is the concentration that gives 50% inhibition. For the molecule B1, the concentration for half-maximal inhibition (IC50) is 75.1 nM in test [1] and 142 nM in test [2].

These data come from PMC13208732 (2026).
